We go through one substance from PMC7164962.

This test has as its target ADHA, alcohol dehydrogenase from Candida magnoliae DSMZ 70638, wild type (Candida magnoliae DSMZ 70638). In words: crystal structure; purified enzyme, sitting drop, 20% w/v PEG 3350, 0.2 M sodium citrate; with or without 1 mM NADP+; quaternary structure seen in the crystal.

With “ADHA, alcohol dehydrogenase from Candida magnoliae DSMZ 70638, wild type (enzyme)”, the stoichiometry N (as a rule, the number of molecules, sites or subunits per partner or assembly) came to 4.
